Reference: US11660961B2, “Host cells and methods for producing isopentenol from mevalonate” (The Regents of the University of California, priority 2015, dated 2023)
Residue numbers refer to the chain shown, from its start. Names may count otherwise. “And” between values parts separate entries of the source, which are not always exact repeats. Equal entries are not always repeated. Where two headings read alike, the source gives them in different places.

B1: NudF: NudF of B. subtilis, identified as a IPP hydrolase (protein, UniProt P54570 1-185, looked up)
ADP-ribose pyrophosphatase: MKSLEEKTIAKEQIFSGKVIDLYVEDVELPNGKASKREIVKHPGAVAVLAVTDEGKIIMVKQFRKPLERTIVEIPAGKLEKGEEPEYTALRELEEETGYTAKKLTKITAFYTSPGFADEIVHVFLAEELSVLEEKRELDEDEFVEVMEVTLEDALKLVESREVYDAKTAYAIQYLQLKEALQAQK
B2: PMDsc WT: wild type mevalonate diphosphate decarboxylase from Saccharomyces cerevisiae (protein, UniProt P32377 1-396, looked up)
Diphosphomevalonate …: MTVYTASVTAPVNIATLKYWGKRDTKLNLPTNSSISVTLSQDDLRTLTSAATAPEFERDTLWLNGEPHSIDNERTQNCLRDLRQLRKEMESKDASLPTLSQWKLHIVSENNFPTAAGLASSAAGFAALVSAIAKLYQLPQSTSEISRIARKGSGSACRSLFGGYVAWEMGKAEDGHDSMAVQIADSSDWPQMKACVLVVSDIKKDVSSTQGMQLTVATSELFKERIEHVVPKRFEVMRKAIVEKDFATFAKETMMDSNSFHATCLDSFPPIFYMNDTSKRIISWCHTINQFYGETIVAYTFDAGPNAVLYYLAENESKLFAFIYKLFGSVPGWDKKFTTEQLEAFNHQFESSNFTARELDLELQKDVARVILTQVGSGPQETNESLIDAKTGLPKE
B3: PMDsc T209D: PMDsc mutant, T209 mutated to negatively charged aspartate (protein)
chain: B2 Diphosphomevalonate … with T209D
B4: PMDsc I145F: PMDsc mutant I145F (protein)
chain: B2 Diphosphomevalonate … with I145F
B5: PMDsc R74H: PMDsc mutant R74H (protein)
chain: B2 Diphosphomevalonate … with R74H
B6: PMDsc K22M: PMDsc mutant, K22 mutated to neutral methionine (protein)
chain: B2 Diphosphomevalonate … with K22M

Tests used:
[1] = In vitro hydrolysis of IPP by purified Nudix hydrolase; format: biochemical; conditions: purified enzyme with IPP; up to 16 hours
Method: All metabolites are analyzed by liquid chromatography mass spectrometry (LC-MS; Agilent Technologies 1200 Series HPLC system and Agilent Technologies 6210 time-of-flight mass spectrometer) on a ZIC-HILIC column (150 mm length, 2.1-mm internal diameter, and 3.5-μm particle size). Standard chemicals (IPP and IP) are purchased from Sigma-Aldrich (USA). Metabolites are eluted isocratically with a mobile phase composition of 64% (v/v) acetonitrile containing 50 mM ammonium acetate with a flow rate of 0.15 mL/min. IPP and IP from E. coli extracts or enzyme assay are quantified via […] calibration curves ranging from 781.25 nM to 200 μM.

[2] = In vitro decarboxylase activity toward MVA; format: biochemical
Method: In vitro enzyme kinetics of decarboxylases are performed as described in previous studies (Barta et al., 2012 and Vannice et al., 2014). Briefly, enzymatic activity of decarboxylase is determined by a spectrophotometer assay quantifying ADP product formation, which is coupled to NADH oxidation by pyruvate kinase/lactate dehydrogenase. Assay mixtures are prepared in 50 mM HEPES-KOH (pH 7.5) containing 10 mM MgCl2, 400 μM phosphoenolpyruvate, 200 μM NADH, 4 mM ATP, and 25 U of pyruvate kinase/lactate dehydrogenase (Sigma, P0294). […]

[3] = substrate MVAPP, cited from earlier work
E. coli BW25113 = assay: Isopentenol production in E. coli; format: cell-based, Escherichia coli; conditions: for isopentenol productivity: pathway II, through 30 hours of batch fermentation; for effect on in vivo isopentenol production: expressed in IPP-bypass pathway II in E. coli
Method: E. coli BW25113 harboring two plasmids is used for isopentenol production. Seed cultures of all production strains are prepared by growing single colonies in LB medium containing 100 μg/mL ampicillin and 30 μg/mL chloramphenicol overnight at 37° C. with shaking at 200 rpm. The seed cultures are diluted in EZ-Rich defined medium (Teknova, USA) containing 10 g/L glucose (1%, w/v), 100 μg/mL ampicillin and 30 μg/mL chloramphenicol. The E. coli cell cultures are incubated in rotary shakers (200 rpm) at 37° C., and 0.5 mM IPTG is added to induce protein expression at OD600 of 0.6-0.8. To provide different levels of aeration, identical volumes of the cell culture are split into two flasks for incubation at 30° C. with shaking at either 200 rpm or 30 rpm.
For isopentenol quantification, 250 μL of cell culture is combined with 250 μL of ethyl acetate containing 1-butanol (30 mg/L) as an internal standard. This mixture of ethyl acetate and cell culture is vigorously shaken for 15 min and subsequently centrifuged at 13,000 g for 2 min to separate ethyl acetate from the aqueous phase. 100 μL of the ethyl acetate layer was diluted 5-fold, and 1 μL is analyzed by Agilent GCMS equipped with Cyclosil-B column (Agilent, USA) or Thermo GCFID equipped with DB-WAX column (Agilent, USA) for quantitation of isopentenol.

[4] = In vitro enzyme kinetics of decarboxylases, ADP formation coupled to NADH oxidation; format: biochemical; conditions: for Km / kcat / % of WT (kcat/Km): substrate MVAP; for % of WT (kcat/Km): relative to PMDsc wild type
Method: A plasmid encoding a wild type mevalonate diphosphate decarboxylase from Saccharomyces cerevisiae (PMDsc) with N-terminal His-tag (pSKB3-PMDsc) is transformed into E. coli BL21 (DE3). A seed culture of BL21 (DE3) harboring pSKB3-PMDsc is prepared by inoculating a single colony and growing it overnight in Luria-Bertani (LB) medium containing kanamycin (50 μg/mL). The seed culture is diluted in Terrific Broth supplemented with 2% glycerol and 50 μg/mL kanamycin and incubated at 37° C. until the optical density of the culture at 600 nm (OD600) reached to 0.6-0.8. The cell culture is supplemented with isopropyl-β-D-thiogalactopyranoside (IPTG) to the final concentration of 0.5 mM and transferred to 18° C. for protein expression overnight. Cells are collected by centrifugation and re-suspended in 50 mM Tris-HCl (pH 7.5) buffer containing 300 mM NaCl and 10 mM imidazole. Cells are lysed by sonication and purified by HisPur Cobalt Resins (Thermo Scientific, USA). The purified PMDss is desalted in 10 mM Tris-HCl (pH 7.5) containing 50 mM NaCl, 0.5 mM dithiothreitol (DTT) and 20% glycerol, and flash-frozen in liquid nitrogen for storage at −80° C. All PIVD mutants, PMDsc, and NudB are purified as described above, except that NudB is desalted in 50 mM Tris-HCl (pH 8.0) buffer containing 0.1 mM EDTA, 1 mM DTT and 20% glycerol.
In vitro enzyme kinetics of decarboxylases are performed as described in previous studies (Barta et al., 2012 and Vannice et al., 2014). Briefly, enzymatic activity of decarboxylase is determined by a spectrophotometer assay quantifying ADP product formation, which is coupled to NADH oxidation by pyruvate kinase/lactate dehydrogenase. Assay mixtures are prepared in 50 mM HEPES-KOH (pH 7.5) containing 10 mM MgCl2, 400 μM phosphoenolpyruvate, 200 μM NADH, 4 mM ATP, and 25 U of pyruvate kinase/lactate dehydrogenase (Sigma, P0294). The reaction is initiated by addition of various concentrations of MVAP from 100 μM to 4,000 μM, and the reaction velocity is determined by monitoring OD at 340 nm in Spectramax 384plus microplate reader (Molecular Devices, USA).

Row | Molecule | IPP hydrolysis product [1] | activity on MVA [2] | Km ([3]; Krepkiy and Miziorko, 2004) | kcat ([3]; literature) | isopentenol productivity (E. coli BW25113) | Km toward MVAP, fold higher than reported Km toward MVAPP ([4]; MVAP vs native substrate MVAPP) | kcat toward MVAP, fold lower than reported kcat toward MVAPP ([4]; MVAP vs native substrate MVAPP) | Km [4] | kcat [4] | % of WT (kcat/Km) [4] | effect on in vivo isopentenol production (E. coli BW25113) | % of WT (kcat/Km) ([4]; listed as I145F) | % of WT (kcat/Km) ([4]; listed as R74H)
1 | B1 | hydrolyze IPP to IP, but not to isopentenol |  |  |  |  |  |  |  |  |  |  |  | 
2 | B2 |  | too low to determine the kinetic parameters | 123 µM | 5.9 s⁻¹ and 5.4 s⁻¹ | 15.9 mg/L/h | ~8 fold | about 35 fold | 990 µM | 0.14 s⁻¹ | 100% |  |  | 
3 | B3 |  |  |  |  |  |  |  | 990 µM | 0.13 s⁻¹ | 98% | do not significantly change the in vivo production titer |  | 
4 | B4 |  | do not show detectible hydrolysis activity on MVA |  |  |  |  |  | 1360 µM | 0.28 s⁻¹ | 147% | reduces isopentenol titer and productivity | 147% | 
5 | B5 |  | do not show detectible hydrolysis activity on MVA |  |  | 20.4 mg/L/h |  |  | 770 µM | 0.23 s⁻¹ | 220% |  |  | 220%
6 | B6 |  |  |  |  |  |  |  | 2470 µM | 0.09 s⁻¹ | 25% | do not significantly change the in vivo production titer |  | 
